In publication PMC8809517, “Cofactor-independent RNA editing by a synthetic S-type PPR protein”:
Changes are numbered by the printed parent chain.

Experiments:
Assay in all cases: high-throughput RNA pulldown from lysate on Ni-NTA beads; HRP: 50 mM Tris pH 8, 150 mM NaCl, 1 mM beta-mercaptoethanol, 50 ug/ml BSA, 3 ug/ml yeast RNA, 0.5% heparin; ITC and FP: Tris pH 8, 200 mM KCl, 5% glycerol; MST: 50 mM Tris pH 8, 200 mM NaCl, 1 mM DTT, BSA, heparin, 0.05% Tween 20
Settings in all cases: tags: N-terminal His-eGFP
[1] = target: T1, GFP-9S library array, motif 4 ND N98Y;D124P (synthetic construct, N98Y;D124P)
T1 chain: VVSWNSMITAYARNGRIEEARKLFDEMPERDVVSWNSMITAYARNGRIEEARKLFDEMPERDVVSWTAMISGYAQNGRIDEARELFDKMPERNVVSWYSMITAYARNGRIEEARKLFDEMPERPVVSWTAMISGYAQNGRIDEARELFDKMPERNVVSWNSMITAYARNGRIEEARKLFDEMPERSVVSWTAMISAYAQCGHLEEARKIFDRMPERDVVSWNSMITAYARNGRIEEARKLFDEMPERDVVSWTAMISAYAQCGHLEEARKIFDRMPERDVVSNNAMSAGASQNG

[2] = target: T2, GFP-9S library array, motif 4 ND N98C;D124V (synthetic construct, N98C;D124V)
T2 chain: T1 chain with Y98C, P124V

[3] = target: T3, GFP-9S library array, motif 4 ND N98H;D124V (synthetic construct, N98H;D124V)
T3 chain: T1 chain with Y98H, P124V

[4] = target: T4, GFP-9S library array, motif 4 ND N98T;D124P (synthetic construct, N98T;D124P)
T4 chain: T1 chain with Y98T

[5] = target: T5, GFP-9S library array, motif 4 ND D124H (synthetic construct, D124H)
T5 chain: T1 chain with Y98N, P124H

AUUAAACGUGA (ssRNA) [IR-rpoA-A]
Kd ([1]; label: 5' IRDye 800CW): 219 nM
Kd ([2]; label: 5' IRDye 800CW): 98.1 nM
Kd ([3]; label: 5' IRDye 800CW): 115 nM
Kd ([4]; label: 5' IRDye 800CW): 107 nM
Kd ([5]; label: 5' IRDye 800CW): 285 nM

AUUACACGUGA (ssRNA) [Cy5-rpoA]
Kd ([1]; label: 5' Cy5): 106 nM
Kd ([2]; label: 5' Cy5): 130 nM
Kd ([3]; label: 5' Cy5): 81.3 nM
Kd ([4]; label: 5' Cy5): 92.4 nM
Kd ([5]; label: 5' Cy5): 166 nM

AUUAGACGUGA (ssRNA) [Cy5-rpoA-G]
Kd ([1]; label: 5' Cy5): 110 nM
Kd ([2]; label: 5' Cy5): 124 nM
Kd ([3]; label: 5' Cy5): 95.2 nM
Kd ([4]; label: 5' Cy5): 90.3 nM
Kd ([5]; label: 5' Cy5): 287 nM

AUUAUACGUGA (ssRNA) [IR-rpoA-U]
Kd ([1]; label: 5' IRDye 800CW): 160 nM
Kd ([2]; label: 5' IRDye 800CW): 167 nM
Kd ([3]; label: 5' IRDye 800CW): 57.3 nM
Kd ([4]; label: 5' IRDye 800CW): 113 nM
Kd ([5]; label: 5' IRDye 800CW): 40.7 nM
